Experimental findings from US8741844B2, “Use of mutated antithrombins for treating or preventing coagulation disorders” (Universite Paris-Sud XI, priority 2007, dated 2014) are described below.

Changes are numbered by the printed parent chain. Names may count otherwise.

In assay [1] the test system is plasma anti FXa activity in mice treated with pentasaccharide. The assay is described as follows: Murine model: mutated antithrombins as antidotes of fondaparinux, plasma anti FXa activity. Type of assay: in vivo, mouse. To be noted: injection of mutated antithrombin after fondaparinux. The procedure:
The efficiency of the mutated antithrombins AT-R393H(SEQ ID NO: 4), AT-Pro394 (SEQ ID NO: 6), AT-ΔR393-S394 (SEQ ID NO: 18), AT-ΔR393 (SEQ ID NO: 8), AT-ΔS394 (SEQ ID NO: 10), AT-N135Q-R393H(SEQ ID NO: 14), AT-N135Q-Pro394 (SEQ ID NO: 16), AT-N135Q-ΔR393-S394 (SEQ ID NO: 24), AT-N135Q-ΔR393 (SEQ ID NO: 20), AT-N135Q-A5394 (SEQ ID NO: 22) as antidotes is evaluated in a murine model.
The different drugs to be tested (fondaparinux, low molecular weight heparin, full length heparin and the mutated antithrombins) are administrated by intra-venous injection in the caudal vein to avoid the variability encountered when administration is performed subcutaneously. However, Heparin derivatives (fondaparinux, low molecular weight heparin and full length heparin) could also be administrated subcutaneously.
The blood is collected by punction in cave vein into tubes containing 0.105 mol/L trisodium citrate (1:10). Platelet-poor plasma is obtained by centrifugation at 2300 g for 10 minutes at 12° C. and stored at −80° C. until use.
The following elements are determined: • the doses of fondaparinux inducing an overdose in mice, • the mutated antithrombins time course, and in particular the time required to observe a maximal biological effect, • the minimal doses of mutated antithrombins necessary to neutralize fondaparinux.
For each of these experiments, 4 groups of 5 mice each are used: • In the first group mice receive fondaparinux vehicle and then antidote (mutated antithrombin) vehicle. • In the second group, mice receive fondaparinux and then antidote vehicle • In the third group, mice receive fondaparinux vehicle and then antidote • In the last group, mice receive fondaparinux and then antidote
Anti FXa activity measurements is performed as previously described using a Stachrom Heparin® kit on a STA (Stago, France) or a Rotachrom Heparin® kit with procedure adapted for measurement in microplate reader (Dynatech MR 5000). A calibration curve with pentasaccharide is performed, allowing the expression of the results in nmol/ml (or in mg/L) of plasma.
Thus, the antidote (mutated antithrombins) is administered intravenously, 5 min after the intra-venous injection of the fondaparinux, and 5, 15 or 30 min after the subcutaneous injection of the fondaparinux.
The mutated antithrombin time course is studied by measuring the plasma anti-Xa activity 5 min, 10 min, 20 min and 40 min after the antidote administration.
Once the time of action determined, a dose response curve is performed in vivo to determine the dose of antidote necessary to obtain a decrease in Fondaparinux plasma concentration within the therapeutic range around 1.2 nmol/ml (or 2 mg/L), or around 0.7 nmol/ml (or 1.2 mg/L).

The target of a further assay is T1, factor Xa (Homo sapiens, UniProt P00742).
T1 construct: purchased Kordia
The assay is described as follows: Kinetic assay of factor Xa inhibition by antithrombins in a purified system (chromogenic substrate, continuous or discontinuous). The format is biochemical. The following applies: for factor Xa inhibition in continuous method: saturating pentasaccharide concentration; for anticoagulant / anti-factor Xa activity / inhibition rate constant (kon) for factor Xa: discontinuous method; for factor Xa inhibitory activity: with or without pentasaccharide, compared with plasma / wild type antithrombin. The procedure:
Briefly, factor Xa is incubated with an excess of tested antithrombins (corresponding to plasma antithrombin, or wild type antithrombin or mutated antithrombins and varying in each assay realized) in the presence or absence of pentasaccharide (Fondaparinux sodique, Arixtra®, GlaxoSmithKline) and the factor Xa residual activity is measured as a function of time. The pentasaccharide is added in excess in the reaction media so that every tested antithrombin is bound to the pentasaccharide. In the absence of pentasaccharide, polybrene is added in order to neutralize any sulfated glycosaminoglycan that may be present in the reaction media. The residual factor Xa activity is measured as the increase in absorbance at 405 nm resulting from cleavage of the chromogenic substrate (S2765 or S2222, Chromogenix) using a microplate reader (Dynatech MR 5000). The analysis of the data is performed using the GraphPad Prism version 3 software. Absorbance recording is continuous or discontinuous according to the expected inhibition rate constant (kon).
The inhibition rate constant (kon) is the second order rate constant given in M^−1·s^−1 which define the velocity of stable complex formation between protease and antithrombin (higher is the kon value, faster will the complex be established).
When the expected kon is lower than 10^4 M^−1·s^−1 the discontinuous method is used. Factor Xa (0.2 to 1 μM, or 0.1 to 1 μM) is incubated with tested antithrombins (0.2 to 10 μM, or 1 to 10 μM) in the presence of pentasaccharide (10 to 100 μM) or polybrene (100 μg/ml) in a final volume of 10 μl for 10 seconds to 5 hours, or 10 seconds to 24 hours. At the end of this incubation period, 190 μl of kinetic buffer containing 200 μM substrate is added and absorbance at 405 nm is recorded.
The kinetic rate constant (k) is estimated by fitting the substrate hydrolysis initial rate curve to equation (1) using non-linear regression with v0 and v∞ being the substrate hydrolysis rate at time to or too respectively. […] (1)
The inhibition rate constant (kon) is calculated from the rate constant (k) using equation (2) where AT is the tested antithrombin concentration. k=AT·kon (2)
When the expected kon is higher than 10^4 M^−1·s^−1′ the continuous method is used. The tested antithrombin (0.01 to 1 μM, or 0.1 to 1 μM) is incubated with the substrate (200 μM) in the presence of pentasaccharide or polybrene in a final volume of 100 μL, or 190 μl, and the reaction is started by addition of 100 μL, or 10 μL, of factor Xa (2 nM or 10 nM). The rate constant (k) is obtained by fitting the substrate hydrolysis curve to equation (3) or (3′) using non-linear regression analysis where A0 is the absorbance at t0, and vi and vs are respectively the initial and final rates of substrate hydrolysis in the absence of tested antithrombin. A405=A0+vi·(1−exp(−k·t))/k. (3) Equation (3′) is also used, particularly in presence of plasma. A405=A0+vs*t+(vi−vs)*(1−exp(−k·t))/k. (3′)
The inhibition rate constant (kon) is calculated from the kinetic constant (k) using equation (4) that takes into account the competitive effect of the substrate, with S being the initial substrate concentration, Km, the Michaelis constant for factor Xa-substrate interaction, AT the tested antithrombin concentration. k=(kon/(1+S/Km))·[AT] (4)
Mutated antithrombins and wild type AT inhibitory activity are measured in the same conditions and compared with plasma AT inhibitory activity.

[2] abbreviates: in the presence of pentasaccharide.

T1 sequence (P00742 235-488 limits assumed): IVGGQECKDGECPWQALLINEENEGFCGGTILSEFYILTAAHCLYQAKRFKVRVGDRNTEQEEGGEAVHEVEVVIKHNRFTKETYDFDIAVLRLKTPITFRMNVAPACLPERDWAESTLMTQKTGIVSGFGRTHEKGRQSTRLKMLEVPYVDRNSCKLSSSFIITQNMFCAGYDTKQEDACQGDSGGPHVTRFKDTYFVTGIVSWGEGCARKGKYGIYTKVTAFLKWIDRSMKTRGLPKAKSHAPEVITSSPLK
T1 sequence (P00742 41-179 partner limits assumed): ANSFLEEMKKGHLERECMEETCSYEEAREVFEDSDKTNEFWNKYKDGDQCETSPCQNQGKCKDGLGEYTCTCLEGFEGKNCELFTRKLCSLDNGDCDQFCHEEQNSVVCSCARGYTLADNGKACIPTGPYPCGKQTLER

With “AT-N135Q-R393H: human antithrombin with substitution at 393 by Histidine and at 135 by Glutamine”, the “plasma anti FXa activity in mice treated with pentasaccharide” value (“plasma anti FXa activity in mice treated” for short) in assay [1] is recorded as “significant decrease”. Further, in the assay with factor Xa, the “factor Xa inhibition in continuous method” value was “slow factor Xa inhibitors” and the “factor Xa inhibitory activity” value is on record as “negligible”. Moreover, in the assay with factor Xa (setting [2]), the “anticoagulant / anti-factor Xa activity” value is reported as “largely reduced” and the “inhibition rate constant (kon) for factor Xa” value is 4415 M⁻¹ s⁻¹.

In the case of “AT-R393H: human antithrombin (SEQ ID NO:2) with substitution of the amino acid at position 393 by Histidine”, the “plasma anti FXa activity in mice treated” value in assay [1] is listed as “significant decrease”. Moreover, in the assay with factor Xa, the “factor Xa inhibitory activity” value is “negligible”.

B1: AT-N135Q-Pro394: human antithrombin with Proline inserted between 393 and 394 and substitution at 135 by Glutamine (protein, listed as Homo sapiens)
chain: HGSPVDICTAKPRDIPMNPMCIYRSPEKKATEDEGSEQKIPEATNRRVWELSKANSRFATTFYQHLADSKNDNDNIFLSPLSISTAFAMTKLGACNDTLQQLMEVFKFDTISEKTSDQIHFFFAKLNCRLYRKAQKSSKLVSANRLFGDKSLTFNETYQDISELVYGAKLQPLDFKENAEQSRAAINKWVSNKTEGRITDVIPSEAINELTVLVLVNTIYFKGLWKSKFSPENTRKELFYKADGESCSASMMYQEGKFRYRRVAEGTQVLELPFKGDDITMVLILPKPEKSLAKVEKELTPEVLQEWLDELEEMMLVVHMPRFRIEDGFSLKEQLQDMGLVDLFSPEKSKLPGIVAEGRDDLYVSDAFHKAFLEVNEEGSEAAASTAVVIAGRPSLNPNRVTFKANRPFLVFIREVPLNTIIFMGRVANPCVK
For B1, the “plasma anti FXa activity in mice treated” value in assay [1] is on record as “significant decrease”. Moreover, in the assay with factor Xa, the “factor Xa inhibition in continuous method” value is reported as “slow factor Xa inhibitors” and the “factor Xa inhibitory activity” value is “negligible”. Besides, in the assay with factor Xa (setting [2]), the “anticoagulant / anti-factor Xa activity” value is on record as “almost devoid of anti-factor Xa activity”; the “inhibition rate constant (kon) for factor Xa” value was 33 M⁻¹ s⁻¹; the “kon, times lower than plasma AT” value was “at least 7600 times”.

B2: AT-Pro394: human antithrombin with insertion of a Proline between positions 393 and 394 (protein, listed as Homo sapiens)
chain: B1 chain with Q135N
B2: the “plasma anti FXa activity in mice treated” value in assay [1] was “significant decrease”. The “factor Xa inhibitory activity” value with factor Xa is listed as “negligible”.

B3: AT-N135Q-ΔR393-S394: human antithrombin with deletion of positions 393 and 394 and substitution at 135 by Glutamine (protein, listed as Homo sapiens)
chain: HGSPVDICTAKPRDIPMNPMCIYRSPEKKATEDEGSEQKIPEATNRRVWELSKANSRFATTFYQHLADSKNDNDNIFLSPLSISTAFAMTKLGACNDTLQQLMEVFKFDTISEKTSDQIHFFFAKLNCRLYRKAQKSSKLVSANRLFGDKSLTFNETYQDISELVYGAKLQPLDFKENAEQSRAAINKWVSNKTEGRITDVIPSEAINELTVLVLVNTIYFKGLWKSKFSPENTRKELFYKADGESCSASMMYQEGKFRYRRVAEGTQVLELPFKGDDITMVLILPKPEKSLAKVEKELTPEVLQEWLDELEEMMLVVHMPRFRIEDGFSLKEQLQDMGLVDLFSPEKSKLPGIVAEGRDDLYVSDAFHKAFLEVNEEGSEAAASTAVVIAGLNPNRVTFKANRPFLVFIREVPLNTIIFMGRVANPCVK
For B3, the “plasma anti FXa activity in mice treated” value in assay [1] is “significant decrease”. In the assay with factor Xa, the “factor Xa inhibitory activity” value is listed as “negligible”.

B4: AT-N135Q-ΔR393: human antithrombin with deletion of position 393 and substitution at 135 by Glutamine (protein, listed as Homo sapiens)
chain: HGSPVDICTAKPRDIPMNPMCIYRSPEKKATEDEGSEQKIPEATNRRVWELSKANSRFATTFYQHLADSKNDNDNIFLSPLSISTAFAMTKLGACNDTLQQLMEVFKFDTISEKTSDQIHFFFAKLNCRLYRKAQKSSKLVSANRLFGDKSLTFNETYQDISELVYGAKLQPLDFKENAEQSRAAINKWVSNKTEGRITDVIPSEAINELTVLVLVNTIYFKGLWKSKFSPENTRKELFYKADGESCSASMMYQEGKFRYRRVAEGTQVLELPFKGDDITMVLILPKPEKSLAKVEKELTPEVLQEWLDELEEMMLVVHMPRFRIEDGFSLKEQLQDMGLVDLFSPEKSKLPGIVAEGRDDLYVSDAFHKAFLEVNEEGSEAAASTAVVIAGSLNPNRVTFKANRPFLVFIREVPLNTIIFMGRVANPCVK
For the molecule B4, the “plasma anti FXa activity in mice treated” value in assay [1] is recorded as “significant decrease”. In addition, in the assay with factor Xa, the “factor Xa inhibitory activity” value is given as “negligible”.

B5: AT-N135Q-ΔS394: human antithrombin with deletion of position 394 and substitution at 135 by Glutamine (protein, listed as Homo sapiens)
chain: B4 chain with S393R
Turning to B5, the “plasma anti FXa activity in mice treated” value in assay [1] is given as “significant decrease”. Also, the “factor Xa inhibitory activity” value in the assay with factor Xa was “negligible”.
